To fix the notation:
B1: library; a variant is named by its letters at N, in order (parent)
chain: ACATTTGTTGATACAACCATAAAATGATAATTACACCCATAAATTGATAATTATCACACCCANNNNNNNNNNNNNNCTCTGATCATAGTCAGACCAACATTGCTACGACCCGTATTCGCACCGACAC

The variants in series [1] derive from B1. Kind of series: relative integration efficiency (T-RL orientation) vs wild-type transposon end (log2 (normalized fold change)); transposon end mutated: right end (5 bp flank + 75 bp right end); higher = more efficient transposition. The settings on record: with VchCAST RNA-guided transposition machinery (E. coli BL21(DE3) host, lacZ target). As for the experimental part:
(§1)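 Pooled, barcoded VchCAST (Tn6677) mini-transposon donor libraries; each variable transposon-end sequence sits in a fixed pDonor mini-transposon context (10-bp barcode and cargo not included). Left- or right-end libraries were co-transformed with pEffector (TniQ-Cascade, TnsABC, lacZ crRNA, T7, 0.1 mM IPTG) into E. coli BL21(DE3) and grown 18 h at 37 C. T-LR and T-RL junction amplicons were sequenced; output/input barcode fold change was normalised to the mean of four wild-type barcodes and log2-transformed. Two biological replicates; zero-count/undetected variants carry floor values (-10 / -15), censored here. Barcode uncoupling by PCR recombination adds noise.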

The variants in series [2] derive from B1. Kind of series: relative integration efficiency (T-LR orientation) vs wild-type transposon end (log2 (normalized fold change)); transposon end mutated: right end (5 bp flank + 75 bp right end); higher = more efficient transposition. The settings on record: with VchCAST RNA-guided transposition machinery (E. coli BL21(DE3) host, lacZ target). As for the experimental part: as §1

± gives the standard deviation of the averaged measurements.

The values below come from the supplement of paper PMC10201428.

Regarding ATTTTTGATATTGC, the figures for the “relative integration efficiency (log2)” value in series [1] and in series [2] were -0.244 ± 0.095 and 1.64 ± 0.1, respectively.

Turning to TTTTATGATATTGC, the “relative integration efficiency (log2)” value in series [1] is -0.0751 ± 0.044; in series [2], 0.744 ± 0.14.

As to ATTTAACTATAACG T52G, the “relative integration efficiency (log2)” value in series [1] is -1.31 ± 0.41; in series [2], 2.29 ± 0.27.

As for ATTTAACTATAACG T54A, the “relative integration efficiency (log2)” value in series [1] is -1.14 ± 0.19; in series [2], 2.49 ± 0.12.

For ATTTAACTATAACG T54C, the “relative integration efficiency (log2)” value in series [1] is -1.04 ± 0.22; in series [2] it was 2.37 ± 0.24.

Consider ATTTAACTATAACG T54G, for which the figures for the “relative integration efficiency (log2)” value in series [1] and in series [2] were -1.12 ± 0.37 and 2.49 ± 0.13, respectively.
